From US20210025901A1 (CALIFORNIA INSTITUTE OF TECHNOLOGY, published 2021)
Bridge positions count the residues as written; N and C are the ends. Primed or numbered codes have the meaning given here. Ends that are not written are not given here. PEG3′ = not defined here

Experiments:
[1] = target: T1, Full-length His-tagged IL-17F protein (ab167911, Abcam) (human, UniProt Q96PD4 31-163); test: fluorescence titration of IL17F protein (nM) against the biotinylated biligand; protocol not described for this figure; the arrow from the number points to the PEG3 entry of the legend box
T1 construct: Bought protein, called 'full-length'; also called human IL-17F protein; not shown: His tag
T1 chain: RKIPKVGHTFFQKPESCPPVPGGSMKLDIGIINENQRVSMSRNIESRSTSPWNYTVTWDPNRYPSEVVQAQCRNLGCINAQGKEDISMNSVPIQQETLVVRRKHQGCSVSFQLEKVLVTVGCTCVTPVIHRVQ

[2] = target: T1, Full-length His-tagged IL-17F protein …; test: method not stated, FIG. 12C; biligand with PEG3 linker
[3] = target: T1, Full-length His-tagged IL-17F protein …; test: point ELISA, His-IL-17F vs His-IL-17A at 200 and 50 nM
[4] = target: T2, His-tagged IL-17F epitope scrambled N-terminal to click handle (C48S) (also: His6 tag, position and spacer not given here); test: point ELISA: ligand on NeutrAvidin plate, His-tagged epitope peptide at 2 uM, anti-His-AP detection, no-epitope background subtracted
T2 construct: Chemically synthesized, His6 handle; residues N-terminal to C48S (FFQKPES) scrambled
T2 peptide: SQFEKFPSPPVPGGS

[5] = target: T1, Full-length His-tagged IL-17F protein …; test: point ELISA, His-IL-17F vs His-IL-17A at 100 nM
[6] = target: Full-length His-tagged IL-17F protein (ab167911, Abcam) (human) (UniProt Q96PD4); test: fluorescence titration of IL17F protein (nM) against the biotinylated biligand; protocol not described for this figure
[7] = target: T3, Plasmodium falciparum Histidine Rich Protein-2 (Pf.HRP-2) (Plasmodium falciparum); test: plot 'Affinity': fraction bound against [Pf.HRP2] (molar); protocol not described
T3 construct: The construct used in the assays is not described; the whole entry is named
T3 chain: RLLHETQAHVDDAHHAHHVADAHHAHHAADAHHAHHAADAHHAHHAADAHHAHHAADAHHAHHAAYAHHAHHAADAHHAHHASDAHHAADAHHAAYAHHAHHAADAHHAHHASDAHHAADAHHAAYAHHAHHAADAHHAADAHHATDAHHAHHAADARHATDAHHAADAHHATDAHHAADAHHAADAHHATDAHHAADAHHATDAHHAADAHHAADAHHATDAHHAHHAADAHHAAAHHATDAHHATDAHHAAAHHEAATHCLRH

[8] = target: T3, Plasmodium falciparum Histidine Rich …; test: method not stated, FIG. 15; two Cy(YKYYR) joined by about a 1.5 nm linker
[9] = target: T4, Full-length His-tagged IL-17A protein (ab166882, Abcam) (human, UniProt Q16552 24-155); test: point ELISA, IL17F or IL17A at 100 nM, mean subtracted fluorescence; protocol not described for this panel
T4 construct: Bought protein; it may not be the whole protein; also called human IL-17A protein; not shown: His tag
T4 sequence: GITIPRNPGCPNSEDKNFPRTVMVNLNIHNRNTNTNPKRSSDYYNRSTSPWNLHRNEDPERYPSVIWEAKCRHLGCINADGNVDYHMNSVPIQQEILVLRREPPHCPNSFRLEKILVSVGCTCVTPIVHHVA

[10] = target: T4, Full-length His-tagged IL-17A protein …; test: point ELISA: ligand on NeutrAvidin plate, His-tagged protein at 100 nM, anti-His-AP detection, subtracted fluorescence

B1: Biotin-PEG3-Cy(RSYNK)(SEQ ID NO:28)-PEG3-Cy(RRATS)(SEQ ID NO:9) (designed binder)
peptide 1: RSYNK
peptide 2: RRATS
modifications: not fully specified (N-terminus, bridges); also: macrocycles joined by PEG3 linker (one PEGylated amino acid), attachment not given here, triazole to a chain's N/C-terminus
notes: Two macrocycles covalently joined by one PEGylated amino acid; also called biligand Cy(RSYNK)-PEG3-Cy(RRATS)
EC50 [1]: ~0.25 nM
Kd [2]: 0.25 nM

B2: Cy(RRATS)(SEQ ID NO:9)-PEG3-biotin (peptide)
peptide: RRATS-{PEG3′-biotin}
modifications: triazole N-C; also: flanking Pra and Az4 residues, sides not given here
notes: also called PEG3-biotin-modified Cy(RRATS)
selectivity for IL-17F over IL-17A [3]: 2 ratio
binding result [4]: no binding (tested: 2 uM)

B3: Cy(RRAQS)(SEQ ID NO:10)-PEG3-biotin (peptide)
peptide: RRAQS-{PEG3′-biotin}
modifications: triazole N-C; also: flanking Pra and Az4 residues, sides not given here
notes: also called PEG3-biotin-modified Cy(RRAQS)
selectivity for IL-17F over IL-17A [3]: 2 ratio
binding result [4]: no binding (tested: 2 uM)

B4: Biotin-PEG3-Cy(KKGWP)(SEQ ID NO:23) (peptide)
peptide: KKGWP
modifications: triazole N-C; not fully specified (N-terminus, C-terminus); also: flanking Pra and Az4 residues, sides not given here
notes: also called PEG3-biotin-modified Cy(KKGWP)
selectivity for IL-17F over IL-17A [5]: 4 ratio

B5: Biotin-PEG3-Cy(RSYNK)(SEQ ID NO:28)-PEG2-Cy(RRATS)(SEQ ID NO:9) (designed binder)
peptide 1: RSYNK
peptide 2: RRATS
modifications: triazole (positions not given here); not fully specified (N-terminus, bridges); also: each chain triazole-cyclized macrocycle, positions not given here, macrocycles joined by PEG2 linker, attachment points not given here
EC50 (read off the curve) [6]: 4 nM

B6: Biotin-PEG3-Cy(RSYNK)(SEQ ID NO:28) (peptide)
peptide: RSYNK
modifications: triazole N-C; not fully specified (N-terminus, C-terminus); also: flanking Pra and Az4 residues, sides not given here
notes: also called PEG3-biotin-modified Cy(RSYNK)
selectivity for IL-17F over IL-17A [5]: 4 ratio

B7: cy(YKYYR)(SEQ ID NO:29)-linker-cy(GWNVDL)(SEQ ID NO:30) biligand (designed binder)
peptide 1: YKYYR
peptide 2: GWNVDL
modifications: not fully specified (bridges)
notes: also called resultant biligand
EC50 [7]: 0.542 nM

B8: YKYYR (SEQ ID NO:29) dimer (designed binder)
peptide: YKYYR
modifications: not fully specified (bridges)
notes: also called two Cy(YKYYR) PCCs linked together with about a 1.5 nm long linker; linked biligand
EC50 [8]: 20 nM

B9: Cy(QKHGP)(SEQ ID NO:15)-PEG3-biotin (peptide)
peptide: QKHGP
modifications: triazole (positions not given here); not fully specified (N-terminus, C-terminus, bridges); also: triazole cyclization via flanking Pra and Az4 residues, order not given here, PEG3-biotin, end not given here
notes: also called PEG3-biotin-modified Cy(QKHGP)
binding result [9]: no binding (tested: 100 nM)

B10: Cy(TKHGP)(SEQ ID NO:16)-PEG3-biotin (peptide)
peptide: TKHGP
modifications: triazole (positions not given here); not fully specified (N-terminus, C-terminus, bridges); also: triazole cyclization via flanking Pra and Az4 residues, order not given here, PEG3-biotin, end not given here
notes: also called PEG3-biotin-modified Cy(TKHGP)
binding result [10]: no binding (tested: 100 nM)

B11: Biotin-PEG3-Cy(RSYNK)(SEQ ID NO:28)-PEG5-Cy(RRATS)(SEQ ID NO:9) (designed binder)
peptide 1: RSYNK
peptide 2: RRATS
modifications: triazole (positions not given here); not fully specified (N-terminus, bridges); also: each chain triazole-cyclized macrocycle, positions not given here, macrocycles joined by PEG5 linker, attachment points not given here
EC50 (read off the curve) [6]: 4 nM
